Data reported in patent publication US6312941.

What was measured:
[1] = molecular target: wild-type murine JAK2 (expressed in COS cells from pRK5) (murine)
[2] = molecular target: wild-type murine JAK2 (expressed in COS cells from pRK5) (murine); remark: listed apart in the source

Row | Substance | tyrosyl phosphorylation of JAK2 (αMyc immunoprecipitate, anti-phosphotyrosine blot) [1] [fold] | tyrosine phosphorylation of JAK2 (αJAK2 immunoprecipitate, anti-PY blot, densitometry normalised to JAK2) [2] [%]
1 | HA-tagged SH2-Bβc (expressed in COS cells) | 3 | 
2 | Myc-tagged SH2-Bβn (truncated at amino acid 555, lacks the SH2 domain) |  | 90
